Data on 1 substance can be found in article PMC4813677.

This test has as its target pyruvate kinase M2 (PKM2) (human (endogenous in monocytes and macrophages)) (UniProt P14618). Description: cross-linking.

Sequence of pyruvate kinase M2 (PKM2), P14618 1-531 (enzyme; other documents disagree on this pair) (P14618 whole entry): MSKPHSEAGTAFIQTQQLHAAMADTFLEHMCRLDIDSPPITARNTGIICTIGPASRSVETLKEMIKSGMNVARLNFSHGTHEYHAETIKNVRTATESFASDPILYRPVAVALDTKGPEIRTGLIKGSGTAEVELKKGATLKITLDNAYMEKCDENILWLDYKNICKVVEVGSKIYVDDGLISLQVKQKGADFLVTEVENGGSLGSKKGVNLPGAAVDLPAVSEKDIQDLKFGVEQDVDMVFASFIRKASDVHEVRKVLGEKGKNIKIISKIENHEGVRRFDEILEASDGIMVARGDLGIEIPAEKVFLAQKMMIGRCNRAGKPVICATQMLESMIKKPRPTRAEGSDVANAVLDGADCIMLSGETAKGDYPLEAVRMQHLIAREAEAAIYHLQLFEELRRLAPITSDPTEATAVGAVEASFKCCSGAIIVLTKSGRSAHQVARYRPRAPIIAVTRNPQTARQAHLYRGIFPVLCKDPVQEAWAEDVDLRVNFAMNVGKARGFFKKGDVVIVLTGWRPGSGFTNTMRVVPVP

“pyruvate kinase M2 (PKM2), P14618 1-531 (enzyme; other documents disagree on this pair)” gave a stoichiometry N of 2.

The term stoichiometry N denotes a count of units in the complex or per binding partner.
